# How the values were obtained:
# CD20 (Biacore assay) = CD20 (Biacore assay) (UniProt P11836); assay: SPR; Biacore assay; who was immobilised and the conditions not given
# CD47 (Biacore assay) = CD47 (Biacore assay) (UniProt Q08722); assay: as above
# [1] = biological target: CD47 on Jurkat cells (human (endogenous in Jurkat)) (UniProt Q08722); assay: flow cytometry on cells; cultured cells (Jurkat; Raji-CD47KO; cells with both targets) stained with IMM0306, then secondary antibody anti-human IgG (Fc)-FITC; data analysed with GraphPad Prism 8.0
# Chain of CD47 on Jurkat cells (human (endogenous in Jurkat)) (Q08722 19-323): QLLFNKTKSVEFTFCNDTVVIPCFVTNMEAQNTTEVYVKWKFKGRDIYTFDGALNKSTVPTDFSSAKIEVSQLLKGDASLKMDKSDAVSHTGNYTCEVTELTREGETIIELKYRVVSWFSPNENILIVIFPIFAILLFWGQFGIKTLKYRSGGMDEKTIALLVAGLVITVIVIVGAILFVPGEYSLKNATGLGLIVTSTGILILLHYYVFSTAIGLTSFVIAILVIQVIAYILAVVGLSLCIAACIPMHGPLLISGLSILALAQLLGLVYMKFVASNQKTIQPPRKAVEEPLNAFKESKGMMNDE
# CD47/CD20 double targets = assay: as above
# [2] = biological target: T1, CD20 on Raji-CD47KO cells (Homo sapiens (endogenous, Raji-CD47KO), UniProt P11836); assay: as above; conditions: one partner purified
# T1 construct: CD20, endogenous on Raji-CD47KO cells; also called CD20 target on Raji-CD47KO cells; CD20-positive cells (Raji-CD47KO); source: endogenous, on Raji-CD47KO cells (Raji with human CD47 knockout, in-house)
# T1 sequence (P11836 whole entry): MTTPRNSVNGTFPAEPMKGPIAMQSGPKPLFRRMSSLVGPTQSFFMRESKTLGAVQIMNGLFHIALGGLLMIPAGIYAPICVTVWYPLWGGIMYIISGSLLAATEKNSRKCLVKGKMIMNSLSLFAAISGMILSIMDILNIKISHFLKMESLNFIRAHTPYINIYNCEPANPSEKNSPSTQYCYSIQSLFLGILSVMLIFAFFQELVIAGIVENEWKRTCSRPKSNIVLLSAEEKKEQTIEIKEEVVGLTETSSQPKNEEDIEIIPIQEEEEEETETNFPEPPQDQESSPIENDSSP
# Chain of CD47 (Biacore assay) (Q08722 19-323): as the sequence (Q08722 19-323) above
# Chain of CD20 (Biacore assay) (P11836 whole entry): as the sequence (P11836 whole entry) above
binder,measurement,setting,value
"IMM0306, a fusion protein of CD20 mAb with the CD47 binding domain of SIRPα (bispecific antibody, V domains shown, IgG1; only the SIRPα D1 part can be built; also called CD47xCD20 mAb trap; source: in-house developed CHO-K1 cell expression system; copies: 2 +) VH: QVQLQQPGAELVKPGASVKMSCKASGYTFTSYNMHWVKQTPGRGLEWIGAIYPGNGDTSYNQKFKGKATLTADKSSSTAYMQLSSLTSEDSAVYYCARSTYYGGDWYFNVWGAGTTVTVSA VL: QIVLSQSPAILSASPGEKVTMTCRASSSVSYIHWFQQKPGSSPKPWIYATSNLASGVPVRFSGSGSGTSYSLTISRVEAEDAATYYCQQWTSNPPTFGGGTKHELK",Kd,CD20 (Biacore assay),0.00245 µM
same,Kd,CD47 (Biacore assay),0.00491 µM
same,EC50,[1],0.0168 µM
same,EC50,CD47/CD20 double targets,0.0115 µM
same,EC50,[2],0.0189 µM

# From paper PMC9991911, “IMM0306, a fusion protein of CD20 mAb with the CD47 binding domain of SIRPα, exerts excellent cancer killing efficacy by activating both macrophages and NK cells via blockade of CD47-SIRPα interaction and FcɣR engagement by simultaneously binding to CD47 and CD20 of B cells” (Leukemia, 2022)
